Molecular target: T1, YTHDC2 YTH domain WT (Mus musculus, UniProt B2RR83 1353-1436)
T1 sequence: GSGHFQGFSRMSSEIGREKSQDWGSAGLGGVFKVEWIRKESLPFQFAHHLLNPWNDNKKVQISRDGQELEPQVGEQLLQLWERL
Experiment: fluorescence anisotropy

With CCGGACUGU (ssRNA) [unmodified RNA probe] the Kd was 54 ± 26 µM.

With CCGGACUGU (ssRNA, m6A at position 5) [m6A-modified RNA probe] the Kd was 4.1 ± 1.4 µM.

Source: paper PMC8887132
